Here are results for ten molecules from patent US20260207747A1 (ARTIVA BIOTHERAPEUTICS, published 2026).

For assay [1], the target named is T1, human B cell maturation antigen (BCMA), full-length, on cells (human, UniProt Q02223 1-184).
T1 construct: also called CD269; TNFRSF17
T1 sequence: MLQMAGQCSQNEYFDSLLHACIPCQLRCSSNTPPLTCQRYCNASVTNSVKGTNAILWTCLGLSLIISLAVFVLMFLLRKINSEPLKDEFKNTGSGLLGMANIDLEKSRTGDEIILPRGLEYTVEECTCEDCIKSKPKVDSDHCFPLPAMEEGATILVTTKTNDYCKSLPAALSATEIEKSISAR
As to the kind of experiment: Retrogenix Cell Microarray, proteins expressed in human HEK293 cells.

For assay [2], the target named is T1, human B cell maturation antigen (BCMA), …. The assay is described as follows: FACS titration; cells not named in the heading (value equals the NCI-H929 EC50 of 14D14A in Table 2); heading of Table 6; cells not given.
Assay [3] shares this target. The assay is described as follows: FACS titration (Scatchard analysis) on BCMA-expressing human NCI-H929 cells; anti-mouse IgG-A647 detection. The method, then: (§1) Antibodies were generated by immunizing AlivaMab mice with human BCMA and sequenced. The antibody sequences are shown in Table 3, Table 4, Table 5, Table 6, Table 7, and Table 8. […] Antibodies were titrated from 10 nM, with seven 1:5 dilutions. A positive control, mouse anti-human BCMA antibody (Biolegend, cat #357514) was tested in each experiment. Binding readout was measured via secondary detection, using an anti-mouse IgG-A647 nm (dilution 1:10000).

The target is the same in assay [4]. As to the kind of experiment: FACS titration (Scatchard analysis) on HEK-293T cells stably expressing full-length human BCMA; anti-mouse IgG-A647 detection. The protocol:
as §1

B1: 13I04A scFv (scFv)
scFv: DIVMTQSPDSLAVSLGERATINCKSSQSVLYSSYNKNYLAWYQQKPGQPPKILIYWASTRESGVPDRFTGSGSGTDFTLTISSLQAEDVAVYYCQQYYSTMYSFGQGTKLEIKGGGGSGGGGSGGGGSEVQLVESGGGLVQPGGSLRLSCAASGFTSSNYWMSWVRQAPGKGLEWVANIKHDGSEKYFVDSVKGRFTISRDNANNSLYLQMNSLRDEDTAVYYCARMRPWYYDLWGRGTLVTVSS
notes: VL-(G4S)3-VH
Consider B1, for which, in assay [1], the binding result is on record as “binds”.

B2: 01P08A scFv (scFv)
scFv: QPVLTQPPSASASLGASVTLTCTLSSGYSNYKVDWYQQRPGKGPRFVMRVGTGGIVGSKGDGIPDRFSVLGSGLIRYLTIKNIQEEDESDYHCGADHGSGNNFVYVFGTGTKVTVLGGGGSGGGGSGGGGSQVQLQESGPGLVKPSETLSLTCIVSGGSISSYYWNWIRQPAGKGLEWIGRIYKSGNNIYNPSLQSRVTMSLDTSKNQFSLKLSSVTAADTAVYYCADGGNYFDWFDPWGQGTLVIVSS
notes: VL-(G4S)3-VH
For B2, the binding result in assay [1] is “binds”.

B3: Antibody #4 (Clone ID 14D14A_C) (antibody, V domains shown)
VH: QVQLQESGPGLVKPSETLSLTCTVSGGSISSYYWCWIRQSAGKGLEWIGRMYTSGSTNYNPSLKSRVTMSVDTSKNQFSLKLTSVTAADTAVYYCARERGYYYGGGGWIDPWGQGTLVTVSS
VL: not shown
notes: Same VL as 14D14A; The VH differs in Kabat CDR-H1 (SYYWC)
Molecule B3 displayed an EC50 in assay [2] of 827 pM.

B4: Antibody #4 (Clone ID 14D14A) (antibody, V domains shown)
VH: QVQLQESGPGLVKPSETLSLTCTVSGGSISSYYWCWIRQSAGKGLEWIGRMYTSGSTNYNPSLKSRVTMSVDTSKNQFSLKLTSVTAADTAVYYCARERGYYYGGGGWIDPWGQGTLVTVSS
VL: not shown
notes: That clone differs in Kabat CDR-H1 (SYYWC against SYYWS)
Regarding B4, the EC50 in assay [3] was found to be 827 pM; in assay [4], 172 pM.

B5: Antibody #2 (Clone ID 13I04A) (antibody, V domains shown)
VH: EVQLVESGGGLVQPGGSLRLSCAASGFTSSNYWMSWVRQAPGKGLEWVANIKHDGSEKYFVDSVKGRFTISRDNANNSLYLQMNSLRDEDTAVYYCARMRPWYYDLWGRGTLVTVSS
VL: not shown
notes: Raised in AlivaMab mice immunised with human BCMA and purified on protein A. Detected with anti-mouse IgG; also called 13104A
As for B5, the EC50 in assay [3] worked out at 189 pM; in assay [4], 37 pM.

B6: 13L15A scFv (scFv)
scFv: QPVLTQPPSASASLGASVTLTCTLSSGYSNYRVDWYQQRPGKGPRFVMRVGTGGIVGSKGDGIPDRFSVLGSGLNRYLTIKNIQEEDESDYHCGADHGSGSNFVWVFGGGTKLTVLGGGGSGGGGSGGGGSQAQLVQSGAEVKRPGASVKVSCKASGYTFISYLLHWVRQAPGQGLEWMVIINPSVGSTSYAQKFQGRVTMTRDTSTSTLYMELSSLRSEDTAVYYCARSSRNYWDGAFDIWGQGTMVTVSS
notes: VL-(G4S)3-VH
As to B6, the binding result in assay [1] is recorded as “binds”.

B7: Antibody #1 (Clone ID 01P08A) (antibody, V domains shown)
VH: QVQLQESGPGLVKPSETLSLTCIVSGGSISSYYWNWIRQPAGKGLEWIGRIYKSGNNIYNPSLQSRVTMSLDTSKNQFSLKLSSVTAADTAVYYCADGGNYFDWFDPWGQGTLVIVSS
VL: QPVLTQPPSASASLGASVTLTCTLSSGYSNYKVDWYQQRPGKGPRFVMRVGTGGIVGSKGDGIPDRFSVLGSGLIRYLTIKNIQEEDESDYHCGADHGSGNNFVYVFGTGTKVTVL
notes: Raised in AlivaMab mice immunised with human BCMA and purified on protein A. Detected with anti-mouse IgG
For B7, the figures for the EC50 in assay [3] and in assay [4] were 3790 pM and 1040 pM, respectively.

B8: Antibody #5 (Clone ID 16M16A) (antibody, V domains shown)
VH: QVQLVQSGTEVKKPGASVKVSCKASGSTFTSFFIHWVRQAPGQGLEWMGLINPSGGGTGYALKFQGRVTMTRDTSTSTVYMELSSLRSEDTAVYFCSRGNYEAFDLWGHGTMVTVSS
VL: QPVLTQPPSASASLGASVTLTCTLSSGYSNYKVDWYQQRPGKGPRFVMRVGTGGIVGSKGDGIPDRFSVLGSGLNRYLTIKNIQEEDESDYHCGADHGSGSNFVYVFGTGTKVTVL
notes: as for B7
For B8, the EC50 in assay [3] turned out to be 188 pM; in assay [4], 40 pM.

B9: Antibody #3 (Clone ID 13L15A) (antibody, V domains shown)
VH: QAQLVQSGAEVKRPGASVKVSCKASGYTFISYLLHWVRQAPGQGLEWMVIINPSVGSTSYAQKFQGRVTMTRDTSTSTLYMELSSLRSEDTAVYYCARSSRNYWDGAFDIWGQGTMVTVSS
VL: QPVLTQPPSASASLGASVTLTCTLSSGYSNYRVDWYQQRPGKGPRFVMRVGTGGIVGSKGDGIPDRFSVLGSGLNRYLTIKNIQEEDESDYHCGADHGSGSNFVWVFGGGTKLTVL
notes: as for B7
Take B9: the EC50 in assay [3] amounted to 235 pM; in assay [4], 51 pM.

B10: 16M16A scFv (scFv)
scFv: QPVLTQPPSASASLGASVTLTCTLSSGYSNYKVDWYQQRPGKGPRFVMRVGTGGIVGSKGDGIPDRFSVLGSGLNRYLTIKNIQEEDESDYHCGADHGSGSNFVYVFGTGTKVTVLGGGGSGGGGSGGGGSQVQLVQSGTEVKKPGASVKVSCKASGSTFTSFFIHWVRQAPGQGLEWMGLINPSGGGTGYALKFQGRVTMTRDTSTSTVYMELSSLRSEDTAVYFCSRGNYEAFDLWGHGTMVTVSS
notes: VL-(G4S)3-VH
As for B10, the binding result in assay [1] was “binds”.
